Experimental data reported in patent publication US20220025045A1 (INNATE PHARMA, published 2022).
Numbering of substitutions follows the chain as printed.

B1: 3H5 (antibody, human IgG1, V domains shown)
VH: QVQLKESGPGLVAPSQSLSITCTVSGFSLTSYGVSWVRQPPGKGLEWLGVIWGDGSTNYHSALISRLSISKDNSKSQVFLKLNSLQTDDTATYYCAKPRWDDYAMDYWGQGTSVTVSS
VL: DIQMTQTTSSLSASLGDRVTISCRASQDISNYLNWYQQKPDGTVKLLIYYTSRLHSGVPSRFSGSGSGTDYSLTISNLEQEDIATYFCQQGNTLWTFGGGTKLEIK
B2: GHI/75 (antibody, V domains shown)
VH: EVILVESGGALVRPGGSLKLSCAASGFTFSSNAMSWVRQTPEKRLEWVATISNGGTFTYYPDSVKGRFTISRDNAKNTLYLQMNSLRSEDTAMYYCARHGDGNYGDPLDYWGQGTTLTVSS
VL: DIQMTQSPASQSASLGESVTITCLASQTIGTWLAWYQQKPGKSPQLLIYAATNLADGVPSRFSGSGSGTKFSFKISSLQAEDFVSYYCQQLYSTPFTFGSGTKLEIK
B3: 27H5 (antibody, human IgG1, V domains shown)
VH: QVQLKESGPGLVAPSQSLSITCTVSGFSLTSYGVSWVRQPPGKGLEWLGVIWGDGNTNYHSALISRLSISKDNSKSQVFLKLNSLQTDDTATYYCARTNWDGWFAYWGQGTLVTVSA
VL: DIVMTQSHKFMSTSVGDRVSITCKASQDVGTAVAWYQQKPGQSPKLLIYWASTRHTGVPDRFTGSGSGTDFTLTISNVQSEDLADYFCQQYRSYPLGTFGGGTKLEIK
B4: 26D8 (antibody, human IgG1, V domains shown)
VH: QVQLQQSGAELVKPGASVKLSCKASGYTFTEHTIHWIKQRSGQGLEWIGWFYPGSGSMKYNEKFKDKATLTADKSSSTVYMELTRLTSEDSAVYFCARHTNWDFDYWGQGTTLTVSS
VL: DIVLTQSPASLAVSLGQRATISCKASQSVDYGGDSYMNWYQQKPGQPPKLLIYAASNLESGIPARFSGSGSGTDLTLNIHPVEEDDAAMYYCQQSNEEPWTFGGGTKLEIK
B5: 18E1 (antibody, human IgG1, V domains shown)
VH: B4 VH with K19R, E31A, I37V, F51L, M58I, T84S
VL: B4 VL with D1N, D34A, D85E
B6: 27C10 (antibody, human IgG1, V domains shown)
VH: EVQLQESGPGLVKPSQSLSLTCSVTGYSITSGYYWNWIRQFPENKLEWMGYIRYDGSNNYNPSLNNRISITRDASKNQFFLKLNSVTTEDTATYYCARGWLLWFYAVDYWGQGTSVTVSS
VL: DVVMTQTPLSLPVSLGDQASISCRSSQSIVHTNGNTYLEWYLQKSGQSPKLLIYKVSNRLSGVPDRFSGSGSGTDFTLKISRVEAEDLGIYYCFQGSHVPWTFGGGTKLEIK

Tests used:
[1] = molecular target: T1, recombinant human ILT2 protein (analyte in SPR and Octet) (human, UniProt Q8NHL6 24-458, limits assumed); experiment: SPR, mAb captured on Protein-A, monovalent, two state reaction
T1 construct: also called Human ILT2 recombinant proteins
Experimental: Measurements were performed on a Biacore T200 apparatus (Biacore GE Healthcare) at 25° C. In all Biacore experiments HBS-EP+ (Biacore GE Healthcare) and NaOH 10 mM served as running buffer and regeneration buffer respectively. Sensorgrams were analyzed with Biacore T100 Evaluation software. Protein-A was purchased from (GE Healthcare). Human ILT2 recombinant proteins were cloned, produced and purified at Innate Pharma. Protein-A proteins were immobilized covalently to carboxyl groups in the dextran layer on a Sensor Chip CMS. The chip surface was activated with EDC/NHS (N-ethyl-N′-(3-dimethylaminopropyl) carbodiimidehydrochloride and N-hydroxysuccinimide (Biacore GE Healthcare)). Protein-A was diluted to 10 μg/ml in coupling buffer (10 mM acetate, pH 5.6) and injected until the appropriate immobilization level was reached (i.e. 600 RU). Deactivation of the remaining activated groups was performed using 100 mM ethanolamine pH 8 (Biacore GE Healthcare). […] For blank subtraction, cycles were performed again replacing ILT2 proteins with running buffer. The monovalent affinity analysis was conducted following a regular Capture-Kinetic protocol as recommended by the manufacturer (Biacore GE Healthcare kinetic wizard). […]

[2] = molecular target: T1, recombinant human ILT2 protein (analyte …); experiment: BLI (Octet RED96), mAb captured on AMC biosensor, 1:1 model
[3] = molecular target: T2, human ILT-2 (LILRB1), complete form expressed at the cell surface (human, UniProt Q8NHL6 24-650); experiment: flow cytometry, CHO-ILT2 cells
T2 construct: also called CHO-ILT2; CHO ILT2 cell line

Mutant D4-1B = molecular target: T3, Mutant D4-1B; experiment: flow cytometry titration on cells transfected with ILT2 mutant 4-1b
T3 construct: D4 domain point mutant; also called ILT2 mutant 4-1b

Mutant D4-4 = molecular target: T4, Mutant D4-4; experiment: flow cytometry titration on cells transfected with ILT2 mutant 4-4
T4 construct: D4 domain point mutant; also called ILT2 mutant 4-4

ILT2 mutant 4-2 = molecular target: T5, ILT2 mutant 4-2 (human, UniProt Q8NHL6 24-650); experiment: flow cytometry titration on cells transfected with ILT2 mutant 4-2
T5 construct: Transfected in HEK293T cells
T5 sequence (Q8NHL6 other isoform, or with tags, fused parts or gaps mutant): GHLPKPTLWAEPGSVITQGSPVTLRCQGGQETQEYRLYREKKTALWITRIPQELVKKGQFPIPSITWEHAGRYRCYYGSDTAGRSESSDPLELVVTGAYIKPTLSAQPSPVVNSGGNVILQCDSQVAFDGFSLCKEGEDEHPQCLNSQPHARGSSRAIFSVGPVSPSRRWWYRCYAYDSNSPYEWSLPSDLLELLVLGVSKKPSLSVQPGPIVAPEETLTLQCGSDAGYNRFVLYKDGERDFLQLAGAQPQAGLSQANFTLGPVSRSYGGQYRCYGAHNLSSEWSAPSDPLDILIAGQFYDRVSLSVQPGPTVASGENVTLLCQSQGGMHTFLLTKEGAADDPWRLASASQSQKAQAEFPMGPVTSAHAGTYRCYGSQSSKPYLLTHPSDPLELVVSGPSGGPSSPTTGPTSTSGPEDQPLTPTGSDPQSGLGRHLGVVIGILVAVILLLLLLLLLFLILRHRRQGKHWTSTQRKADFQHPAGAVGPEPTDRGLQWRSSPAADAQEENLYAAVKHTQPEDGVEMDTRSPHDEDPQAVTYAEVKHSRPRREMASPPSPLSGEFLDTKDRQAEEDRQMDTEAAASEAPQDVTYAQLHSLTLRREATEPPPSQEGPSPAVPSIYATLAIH

T1 sequence (Q8NHL6 24-458 limits assumed): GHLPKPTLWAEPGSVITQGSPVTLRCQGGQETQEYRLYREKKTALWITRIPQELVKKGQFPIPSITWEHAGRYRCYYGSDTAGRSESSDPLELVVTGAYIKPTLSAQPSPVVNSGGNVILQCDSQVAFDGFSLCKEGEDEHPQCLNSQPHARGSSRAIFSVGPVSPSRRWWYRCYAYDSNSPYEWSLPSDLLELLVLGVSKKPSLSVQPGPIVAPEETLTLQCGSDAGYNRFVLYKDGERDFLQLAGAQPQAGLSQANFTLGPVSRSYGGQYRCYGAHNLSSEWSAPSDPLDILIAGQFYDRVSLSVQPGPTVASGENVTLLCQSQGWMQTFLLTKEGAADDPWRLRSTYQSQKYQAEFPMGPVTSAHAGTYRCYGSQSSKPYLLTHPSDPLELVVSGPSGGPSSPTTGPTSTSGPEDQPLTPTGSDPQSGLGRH
T2 sequence (Q8NHL6 24-650): as the sequence (Q8NHL6 other isoform, or with tags, fused parts or gaps mutant) above, with G328W, H330Q, A347R, A349T, S350Y, A355Y counted along it

Binder | koff [1] [s⁻¹] | EC50 (read off the curve) (Mutant D4-1B) [µg/mL] | EC50 (read off the curve) (Mutant D4-4) [µg/mL] | also measured
B1 | 0.008 | – | – | –
B2 | – | – | – | Kd [2]: 28.1 nM; koff [2]: 0.00038 s⁻¹; kon [2]: 13000 M⁻¹ s⁻¹; EC50 [3]: 5.39 µg/mL
B3 | 0.1 | – | – | –
B4 | – | ~0.2 | – | –
B5 | – | ~0.3 | ~0.3 | –
B6 | – | ~0.5 | ~0.5 | EC50 (read off the curve) (ILT2 mutant 4-2): ~0.6 µg/mL
